Data: publication PMC11417369, “DNA sequence and chromatin differentiate sequence-specific transcription factor binding in the human malaria parasite Plasmodium falciparum”

T1: SIP2 D1 (Plasmodium falciparum, UniProt C6KSN9 177-235)
T1 sequence: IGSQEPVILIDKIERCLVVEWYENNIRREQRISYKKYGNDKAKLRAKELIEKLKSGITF

B1: GTGCAC_site10454 (dsDNA)
DNA 1: TTTTTAATATATTAGGTGCACAATAATACACTTTAT
DNA 2: ATAAAGTGTATTATTGTGCACCTAATATATTAAAAA
B2: GTGCAC_site9862 (dsDNA)
DNA 1: ACACATACACATTAGGTGCACATAATTCAATATTAC
DNA 2: GTAATATTGAATTATGTGCACCTAATGTGTATGTGT
B3: GTGCAC_site10674 (dsDNA)
DNA 1: AAAAAAAAAAAAAAGGTGCAAATAAATTAACCTTAT
DNA 2: ATAAGGTTAATTTATTTGCACCTTTTTTTTTTTTTT
B4: GTGCAC_site9532 (dsDNA)
DNA 1: ATATATATATTAAAGGTGCACAAATAAATATATACA
DNA 2: TGTATATATTTATTTGTGCACCTTTAATATATATAT
B5: GTGCAC_site10505 (dsDNA)
DNA 1: ATTATTACTTTTTGAGTGCACATACACACAGACATA
DNA 2: TATGTCTGTGTGTATGTGCACTCAAAAAGTAATAAT
B6: GTGCAC_site9760 (dsDNA)
DNA 1: ATAATTATTCTTATGGTGCACTGAATATACATGTTG
DNA 2: CAACATGTATATTCAGTGCACCATAAGAATAATTAT
B7: GTGCAC_site10547 (dsDNA)
DNA 1: CGTTGGTATTAAAAGGTGCAATGAAATAATATATTA
DNA 2: TAATATATTATTTCATTGCACCTTTTAATACCAACG
B8: GTGCAC_site10200 (dsDNA)
DNA 1: CTCATTTTTGTACAGGTGCACTTATCGTTACACTAT
DNA 2: ATAGTGTAACGATAAGTGCACCTGTACAAAAATGAG
B9: GTGCAC_site10740 (dsDNA)
DNA 1: AAAAATTAACAAAAGGTGCAATTTATTTATTAACGG
DNA 2: CCGTTAATAAATAAATTGCACCTTTTGTTAATTTTT
B10: GTGCAC_site10727 (dsDNA)
DNA 1: ATAGAAGGCAACTTGGTGCACAAAAAAAAAAATAAT
DNA 2: ATTATTTTTTTTTTTGTGCACCAAGTTGCCTTCTAT
B11: GTGCAC_site10015 (dsDNA)
DNA 1: TATAATGGTTCTGGTGTGCACCATGACAGAATCAAG
DNA 2: CTTGATTCTGTCATGGTGCACACCAGAACCATTATA
B12: GTGCAC_site10198 (dsDNA)
DNA 1: TTTTTAACGTATAAGGTGCACTGTATATGGTACTCA
DNA 2: TGAGTACCATATACAGTGCACCTTATACGTTAAAAA
B13: GTGCAC_site9754 (dsDNA)
DNA 1: ATATAATATTTTAGAGTGCACCGATAACAATAAATA
DNA 2: TATTTATTGTTATCGGTGCACTCTAAAATATTATAT
B14: GTGCAC_site10039 (dsDNA)
DNA 1: CAGTAGTTTTTATGGGTGCAAAACATATATATAACA
DNA 2: TGTTATATATATGTTTTGCACCCATAAAAACTACTG
B15: GTGCAC_site10429 (dsDNA)
DNA 1: TATAAGTGCTCAACGGTGCATTTATAGAAGTTAAAC
DNA 2: GTTTAACTTCTATAAATGCACCGTTGAGCACTTATA
B16: GTGCAC_site9853 (dsDNA)
DNA 1: ACTATTTAATATAGGGTGCAACTTTTTCAAGTAAAT
DNA 2: ATTTACTTGAAAAAGTTGCACCCTATATTAAATAGT
B17: GTGCAC_site9600 (dsDNA)
DNA 1: AACCTTACACAAGGGGTGCAATATTATTTCGATAAA
DNA 2: TTTATCGAAATAATATTGCACCCCTTGTGTAAGGTT
B18: GTGCAC_site10082 (dsDNA)
DNA 1: ATAATAACTTGTAAGGTGCATTTTATGTTTTCTTAA
DNA 2: TTAAGAAAACATAAAATGCACCTTACAAGTTATTAT
B19: GTGCAC_site10679 (dsDNA)
DNA 1: AGCATATTATTTTAGGTGCACTTGAAATGTGTTAAC
DNA 2: GTTAACACATTTCAAGTGCACCTAAAATAATATGCT
B20: GTGCAC_site9720 (dsDNA)
DNA 1: TATATTAAAAAAGAGGTGCATTCGTAAGAGGTTAAA
DNA 2: TTTAACCTCTTACGAATGCACCTCTTTTTTAATATA
B21: GTGCAC_site10759 (dsDNA)
DNA 1: ATTAAATTTCCTTGAGTGCACATTTTGTTAAAATAT
DNA 2: ATATTTTAACAAAATGTGCACTCAAGGAAATTTAAT
B22: GTGCAC_site9525 (dsDNA)
DNA 1: CTGCGTTTAATATGCGTGCACCTTGGTTTTATATCT
DNA 2: AGATATAAAACCAAGGTGCACGCATATTAAACGCAG
B23: GTGCAC_site10519 (dsDNA)
DNA 1: CATGCCTTTAAAAAGGTGCAAACATTTTCACAAACA
DNA 2: TGTTTGTGAAAATGTTTGCACCTTTTTAAAGGCATG
B24: GTGCAC_site10577 (dsDNA)
DNA 1: TTTTTTTTCTATGTGGTGCACATTATTTTTTTTTTT
DNA 2: AAAAAAAAAAATAATGTGCACCACATAGAAAAAAAA
B25: GTGCAC_site10066 (dsDNA)
DNA 1: TAAACATATAGAGGGGTGCAAAGAATTGTAAAATTT
DNA 2: AAATTTTACAATTCTTTGCACCCCTCTATATGTTTA
B26: GTGCAC_site10197 (dsDNA)
DNA 1: TCCATATGCAAACTGGTGCACAAGTAGCTTTTATAT
DNA 2: ATATAAAAGCTACTTGTGCACCAGTTTGCATATGGA
B27: GTGCAC_site10385 (dsDNA)
DNA 1: GTGGTTGTAATGGTGGTGCATATTGTATATTATGTT
DNA 2: AACATAATATACAATATGCACCACCATTACAACCAC
B28: GTGCAC_site10641 (dsDNA)
DNA 1: ATATAATAACAAAAGGTGCGCATTAAGACAAAAAAA
DNA 2: TTTTTTTGTCTTAATGCGCACCTTTTGTTATTATAT
B29: GTGCAC_site10328 (dsDNA)
DNA 1: AAATTCTGCATCGAGGTGCGCCATAAAAATTGTGGT
DNA 2: ACCACAATTTTTATGGCGCACCTCGATGCAGAATTT
B30: GTGCAC_site10448 (dsDNA)
DNA 1: TATTAATTTAAATGGGTGCAAAACCTATATAAATAT
DNA 2: ATATTTATATAGGTTTTGCACCCATTTAAATTAATA
B31: GTGCAC_site9650 (dsDNA)
DNA 1: CAATTTGGTGTACAGGTGCACATGCCTCACGATAAA
DNA 2: TTTATCGTGAGGCATGTGCACCTGTACACCAAATTG
B32: GTGCAC_site10403 (dsDNA)
DNA 1: CTGTAAAATGTGATGGTGCATATTAATTTAGTTGTA
DNA 2: TACAACTAAATTAATATGCACCATCACATTTTACAG

Each binder was assayed against T1, SIP2 D1 (assay: gcPBM; about 25 ug protein; PBS, 1% milk, 0.2 mg/ml BSA, salmon testes DNA, 0.03% Triton X-100). Settings: tags: N-terminal GST (pGEX-4T-1), kept; label: surface-attached array probe.

Row | Binder | binding signal
1 | B1 | 11.3 ln median PBM intensity, better of two orientations
2 | B2 | 11.3 ln median PBM intensity, better of two orientations
3 | B3 | 11.4 ln median PBM intensity, better of two orientations
4 | B4 | 11.3 ln median PBM intensity, better of two orientations
5 | B5 | 10.6 ln median PBM intensity, better of two orientations
6 | B6 | 11 ln median PBM intensity, better of two orientations
7 | B7 | 10.7 ln median PBM intensity, better of two orientations
8 | B8 | 11.5 ln median PBM intensity, better of two orientations
9 | B9 | 10.9 ln median PBM intensity, better of two orientations
10 | B10 | 11.4 ln median PBM intensity, better of two orientations
11 | B11 | 11.4 ln median PBM intensity, better of two orientations
12 | B12 | 11.5 ln median PBM intensity, better of two orientations
13 | B13 | 11.4 ln median PBM intensity, better of two orientations
14 | B14 | 11.3 ln median PBM intensity, better of two orientations
15 | B15 | 10.8 ln median PBM intensity, better of two orientations
16 | B16 | 11.5 ln median PBM intensity, better of two orientations

Row | Binder | binding signal
17 | B17 | 11.5 ln median PBM intensity, better of two orientations
18 | B18 | 10.8 ln median PBM intensity, better of two orientations
19 | B19 | 11.5 ln median PBM intensity, better of two orientations
20 | B20 | 10.6 ln median PBM intensity, better of two orientations
21 | B21 | 10.7 ln median PBM intensity, better of two orientations
22 | B22 | 11.3 ln median PBM intensity, better of two orientations
23 | B23 | 11.4 ln median PBM intensity, better of two orientations
24 | B24 | 11.4 ln median PBM intensity, better of two orientations
25 | B25 | 10.8 ln median PBM intensity, better of two orientations
26 | B26 | 11 ln median PBM intensity, better of two orientations
27 | B27 | 10.7 ln median PBM intensity, better of two orientations
28 | B28 | 11.5 ln median PBM intensity, better of two orientations
29 | B29 | 10.9 ln median PBM intensity, better of two orientations
30 | B30 | 11.1 ln median PBM intensity, better of two orientations
31 | B31 | 11.3 ln median PBM intensity, better of two orientations
32 | B32 | 10.8 ln median PBM intensity, better of two orientations
